From patent US20180362629A1 (ZOETIS BELGIUM S A, published 2018)

T1: recombinant canine β NGF (canine, UniProt Q29074 110-229 (pig entry))
T1 chain: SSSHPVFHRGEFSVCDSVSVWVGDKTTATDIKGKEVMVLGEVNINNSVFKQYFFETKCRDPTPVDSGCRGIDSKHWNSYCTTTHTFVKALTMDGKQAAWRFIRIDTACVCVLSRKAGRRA


Key:
recombinant canine β NGF [1] = molecular target: T1, recombinant canine β NGF; experiment: cell-based or functional assay
recombinant canine β NGF [2] = molecular target: T1, recombinant canine β NGF; experiment: cell-based or functional assay
recombinant canine β NGF [3] = molecular target: T1, recombinant canine β NGF; experiment: direct ELISA, canine NGF coated at 1 µg/ml, mAb at 2 µg/ml
Procedure: (§1) To determine if purified mouse anti-NGF mAbs bind to canine β NGF, ELISA plates were coated with 50 μl/well of canine NGF (Abbott Laboratories) at 1 μg/ml in PBS and incubated over night at 4° C. The plates were washed three times with PBS+Tween buffer. The plates were blocked with 200 μl/well of 2% milk in PBS for 1 hour at room temperature. The plates were washed three times as above. Purified antibodies were diluted to 0.4, 2, or 10 μg/ml. 50 μl of each concentration of purified antibody was added to the plates. The plates were incubated for 1 hour at room temperature. The plates were washed. 50 μl of a 5000-fold diluted goat anti-mouse IgG Fc-HRP (Thermo, catalog #31439) was added. The plates were incubated for 1 hour at room temperature. 50 μl of TMB (Invitrogen, catalog #00-2023) was added and the reaction was stopped using 2N H₂SO₄ (VWR, catalog # BDH3500-1). The absorbance at 450 nm was read on a Spectromax 2E plate reader (Molecular Devices). The results are shown in Table 9, and the numerical value indicates binding of mouse anti-NGF antibodies to canine β NGF.

recombinant canine β NGF [4] = molecular target: T1, recombinant canine β NGF; experiment: direct ELISA, canine NGF coated at 1 µg/ml, mAb at 10 µg/ml
Procedure: as §1

recombinant canine β NGF [5] = molecular target: T1, recombinant canine β NGF; experiment: direct ELISA, canine NGF coated at 1 µg/ml, mAb at 0.4 µg/ml
Procedure: as §1

recombinant canine β NGF [6] = molecular target: T1, recombinant canine β NGF; experiment: SPR (Biacore), mAb captured on goat anti-mouse IgG Fc, canine NGF injected; Expt 1
Procedure: (§2) A biomolecular protein interaction analysis was used to evaluate the binding kinetics of the interaction between the purified anti-NGF hybridoma antibodies and recombinant canine β NGF. The antibodies were captured using a goat anti-mouse IgG FC (10000 RU) surface which was directly immobilized to a CM5 chip using an amine coupling procedure according to the manufacturer's instructions (Biacore). A sample size of 5 μl of antibody at a concentration of 1 μg/ml was captured at 10 μl minute. Recombinant canine NGF was used as the antigen. Canine NGF was injected at 75 μl/min (concentration range: 5-0.039 nM) for mouse antibodies. The association rate was monitored for 3.3 minutes and the dissociation rate was monitored for 10 minutes. Aliquots of canine NGF were also simultaneously injected over a reference reaction CM surface to record any nonspecific binding background. The instrument sensitivity for on-rate is I×IO⁷, such that any on-rate that is faster than I×IO⁷ may not be accurately measured; the instrument sensitivity for off-rate is […], such that any off-rate that is slower than 1×10⁻⁶ may not be accurately measured. Therefore, an on-rate that is faster than 1×10⁷ is recorded as >1×10⁷ and an off-rate that is slower than 1×10⁻⁶ is recorded as <1×10⁻⁶.

recombinant canine β NGF [7] = molecular target: T1, recombinant canine β NGF; experiment: SPR (Biacore), mAb captured on goat anti-mouse IgG Fc, canine NGF injected; Expt 2
Procedure: as §2

recombinant canine β NGF [8] = molecular target: T1, recombinant canine β NGF; experiment: SPR (Biacore), mAb captured on goat anti-mouse IgG Fc, canine NGF injected; Average
Procedure: as §2

| Binder | IC50, canine NGF-induced TF-1 cell proliferation (70 pM canine NGF) (recombinant canine β NGF [1]) | PathHunter IC50 (441 pM canine NGF) (recombinant canine β NGF [2]) [nM] | SureFire pERK IC50 (128 pM canine β NGF) (recombinant canine β NGF [2]) | absorbance at 450 nm (recombinant canine β NGF [3]) [A450] | absorbance at 450 nm (recombinant canine β NGF [4]) [A450] | absorbance at 450 nm (recombinant canine β NGF [5]) [A450] | Kd (recombinant canine β NGF [6]) [pM] | koff (recombinant canine β NGF [6]) [s⁻¹] | kon (recombinant canine β NGF [6]) [M⁻¹ s⁻¹] | Kd (recombinant canine β NGF [7]) [pM] | koff (recombinant canine β NGF [7]) [s⁻¹] | kon (recombinant canine β NGF [7]) [M⁻¹ s⁻¹] | Kd (recombinant canine β NGF [8]) [pM] | koff (recombinant canine β NGF [8]) [s⁻¹] | kon (recombinant canine β NGF [8]) [M⁻¹ s⁻¹] |
| --- | --- | --- | --- | --- | --- | --- | --- | --- | --- | --- | --- | --- | --- | --- | --- |
| PR-1254973 (antibody, mouse IgG2b, V domains shown, also called 2B12; ML129-2B12.5G9) VH: QVQLQQPGAELVKPGASVKLSCKASGYTFTNYWMHWVKQRPGQGLEWIGRIDPYGGGTKHNEKFKRKATVTADKSSSTAYILLSSLTSEDSAVYYCTRSGYDYYFDVWGTGTTVTVSS VL: DIQMTQSPASLSASVGETVTVTCRASENIYSFLAWHQQKQGKSPQLLVYNANTLAEGVPSRFSGSGSGTQFSLKINSLQPEDFGSYYCQHHFGTPFTFGSGTKLEIKR | 39 pM | 0.143 | 18.8 pM | 0.836 | 0.905 | 0.769 | < 12.1 | 0.000121 | > 1e+07 | < 13.8 | 0.000138 | > 1e+07 | < 13 | 0.00013 | > 1e+07 |
| PR-1254972 (antibody, mouse IgG2b, V domains shown, also called 20B10; ML129-20B10.3F4) VH: EVHLVESGGGLVKPGGFLILSCAASGFTFSDYYMFWIRQTPGKRLEWVATISDGGSYTYYTDNVKGRFTISRDNVKNNLYLQMSHLKSADTAMYYCARDWSDSEGFAYWGQGTLVTVSA VL: DVLMTQTPLSLPVSLGDQASISCRSSQSIVQSNGNTYLEWYLQKPGQSPKLLIYKVSNRFSGVPDRFSGSGSGTDFTLKISRVEAEDLGVYYCFQGSHVPFTFGSGTKLEIKR | 0.303 nM | 0.313 | 0.228 nM | 0.091 | 0.154 | 0.071 | < 314 | 0.00314 | > 1e+07 | < 321 | 0.00321 | > 1e+07 | < 318 | 0.00318 | > 1e+07 |
| PR-1254981 (antibody, mouse IgG1, V domains shown, also called 14A9; ML130-14A9.5B12) VH: EVQLVESGGGAVKPGGSLTLSCAASGFTFSNHYMYWVRQTPEKRLEWVASISDGGAYTFYPDTVKGRFTISRDNVNNNLYLQMRHLKSEDTAMYYCTREESANNGFAFWGQGTLVTVSA VL: DVLMTQTPLSLPVSLGDQASISCRSSQSILHSNGNTYLEWYLQKPGQSPNLLIYRVSNRFSGVPDRFSGSGSGTDFTLKISRVEAEDLGVYYCFQGAHVPFTFGSGTKLEIKR | 46 pM | 0.279 | 21.4 pM | 0.458 | 0.61 | 0.229 | 14.7 | 0.000127 | 8.67e+06 | 18.7 | 0.00014 | 7.48e+06 | 16.7 | 0.000134 | 8.08e+06 |
| PR-1254977 (antibody, mouse IgG1, V domains shown, also called 21D4; ML129-21D4.4A11) VH: EVQLQQSGAELVKPGASVKLSCTASGFNIKDTYIYWVKQRPEQGLEWIGRIDPANGNTIYASKFQGKASITADTSSNTAYMQLSSLTSGDTAVYYCAGYGYYAYWGQGTTLTVSS VL: DVVLTQTPLSLPVNIGDQASISCKSTKSLLNGDGFTYLDWYLQKPGQSPQLLIYLVSNRFSGVPDRFSGSGSGTDFTLKISRVEAEDLGVYYCFESNYLFTFGSGTKLEMKR | 0.217 nM | 0.181 | 17.6 pM | 0.414 | 0.552 | 0.223 | < 13.9 | 0.000139 | > 1e+07 | < 16 | 0.00016 | > 1e+07 | < 15 | 0.00015 | > 1e+07 |
